From publication PMC3425544, “The S100A10 Subunit of the Annexin A2 Heterotetramer Facilitates L2-Mediated Human Papillomavirus Infection” (PLoS ONE, 2012)
“Also recorded” adds a separate entry of the source.

Assays:
[1] = test system: HPV16 PsV infection of HaCaT cells; assay: HPV16 PsV infection of HaCaT cells (GFP, flow cytometry); assay type: cell-based, human
Procedure: (§1) HeLa cells (ATCC, Manassas, VA) are human epithelial cells derived from cervical cancer, and were maintained in complete media (IMDM, 10% FBS, 1X PenStrep) at 37°C with 5% CO2 (Lonza, Walkersville, MD). HaCaT cells (Cell Lines Service, Eppelheim, Germany) are in vitro spontaneously transformed human keratinocytes derived from histologically normal skin [75] and were maintained in Defined Keratinocyte Serum-Free Media (KSFM) (Invitrogen, Carlsbad, CA) with manufacturer provided KSFM growth supplement (including insulin, EGF, and FGF) at 37°C with 5% CO2.
Wildtype HPV16 pseudovirions containing GFP reporter were produced by cotransfection of 293TT cells with plasmids encoding codon-optimized HPV16 L1 and L2 and a GFP reporter plasmid (pCIneoGFP) following published procedures. The infectious titer of PsV preparations (in infectious units/mL) was determined by flow cytometric analysis of 293TT cells treated with varying doses of PsV vector stock. Neutralization of PsV were validated in infection assays via pre-incubation with H16.V5 or H16.E70 prior to cellular exposure, and minimal infection rates of less than 1% were observed. To produce pseudovirions with a mutated L2 (108–126) region, site-directed mutagenesis was performed using overlapping mutated primers on the bicistronic packaging HPV16 pseudovirion plasmid p16sheLL as a template. Forward primer 5′-[…]-3′ and reverse primer 5′-[…]-3′ encoding the amino acid substitution of GGDD for LVEE in the L2 capsid region aa 108–111 were used with the QuikChange II XL Site-Directed Mutagenesis Kit (Stratagene, Cedar Creek, TX) according to manufacturer’s instructions. The entire L1 and L2 ORFs of the resulting plasmid were sequenced to confirm mutagenesis of the 108–111 aa L2 region and that no other unexpected mutations were introduced. HPV16 L1–L2(GGDD) PsV containing GFP reporter plasmid were produced as described above for wildtype HPV16 PsV. Confirmation and quantitation of reporter plasmid DNA encapsidation was performed using quantitative real-time PCR following plasmid DNA isolation from pseudovirion preparations by phenol chloroform extraction and ethanol precipitation. L1 content was quantitated by Coomassie Blue staining next to BSA standards following SDS-PAGE. The infectious titer of L2 mutant PsV were determined on 293TT cells as described above for WT PsV.
HaCaT cells seeded at 3×10^4 cells/well or HeLa cells seeded at 2×10^4 cells/well were incubated overnight in 24-well plates at 37°C. The cells were subsequently incubated with wildtype HPV16 PsV containing a pCIneo-GFP vector at an MOI 100 for HaCaT or MOI of 1 for HeLa. The MOIs were chosen for each cell type that achieved 15–25% GFP-positive cells. Infectivity was scored 48 h post infection by enumerating GFP+ cells by flow cytometry. […]

[2] = test system: HPV16 PsV infection of HeLa cells; assay: HPV16 PsV infection of HeLa cells (GFP, flow cytometry); assay type: cell-based, human; details: presence of FBS during SLPI incubation and PsV infection; data not shown
Procedure: as §1
Wildtype HPV16 pseudovirions containing GFP reporter were produced by cotransfection of 293TT cells with plasmids encoding codon-optimized HPV16 L1 and L2 and a GFP reporter plasmid (pCIneoGFP) following published procedures. The infectious titer of PsV preparations (in infectious units/mL) was determined by flow cytometric analysis of 293TT cells treated with varying doses of PsV vector stock. […] Confirmation and quantitation of reporter plasmid DNA encapsidation was performed using quantitative real-time PCR following plasmid DNA isolation from pseudovirion preparations by phenol chloroform extraction and ethanol precipitation. L1 content was quantitated by Coomassie Blue staining next to BSA standards following SDS-PAGE. The infectious titer of L2 mutant PsV were determined on 293TT cells as described above for WT PsV. […]

A2t = assay: ELISA binding to immobilised A2t; parameters: species or system human; details: 500 ng A2t coated, 400 ng PsV, H16.V5 or anti-SLPI detection
Procedure: For assays to determine accessibility of L2_108–120 epitope on capsid surface, 96-well Microlon ELISA plates (USA Scientific, Ocala, FL) were incubated with 500 ng of HPV16 L1 VLP, HPV16 L1L2 VLP or HPV16 PsV in 100 µL PBS overnight at 4°C. The plate was washed with PBST ([…]) and blocked with 200 µL of PBS containing 3% BSA for 2 h at RT. The plate was washed with PBST and incubated with 1∶1000 16L2.4B4 (anti-L2_108–120) or 1∶5000 H16.V5 (anti-L1) in PBST with 1% BSA for 2 h at RT. The plate was washed and incubated with 1∶5000 rabbit-anti-mouse HRP in PBST with 1% BSA for 1 h at RT. The plate was washed, and 100 µL of the HRP substrate (o-phenylenediamine) was added. The absorbance was measured at 490 nm with a Hidex Chameleon plate reader. In control experiments, no VLP or PsV were added, and stained with primary, secondary, or both antibodies and minimal absorbance was seen. For assays to determine in vitro binding capacity of HPV16 capsids to purified A2t protein, 500 ng of purified A2t was coated separately on ELISA plates overnight at 4°C. […] Bound PsV were detected with conformational anti-L1 H16.V5 antibody, followed by anti-mouse IgG HRP antibody conjugate. Bound SLPI was detected with goat anti-SLPI antibody, followed by anti-goat IgG HRP antibody conjugate and addition of substrate.

[3] = test system: HPV16 PsV infection of HeLa cells; details: PsV infectivity, FBS present; ref [38]; cited from earlier work
Procedure: SLPI has shown anti-bacterial and anti-fungal activity aside from its noted anti-protease activity (reviewed in [68]). […] Concentrations in cervical mucosal fluids are commonly reported at 1 µg/ml, but are likely to be more concentrated at the cell surface. In addition, SLPI levels in cervical mucus have been measured midcycle as high as ...

HSV = details: ref [33]; cited from earlier work
Source text: Nonetheless, the link between HSV and H ...

HIV-1 = details: macrophages; ref [34]; cited from earlier work
Source text: A particular local immune event that has been well studied in the context of HPV infection is mucosal co-infection with herpes simplex virus (HSV). Historically, in the 1960s and 1970s, HSV-2 infection was thought to be a possible causative agent for cervical cancer, [31]. However, the role of HSV-2 in cervical cancer began to be questioned when HSV-2 DNA was not consistently found in cervical cancer tissues. Subsequently, HPV DNA was detected in the overwhelming majority of cervical cancer tissue and determined to be the causative agent. […] To test this hypothesis, the effect of SLPI and antibody inhibition of A2t on HPV16 infection of epithelial cel ...

B1: secretory leukocyte protease inhibitor (protein)
chain: SGKSFKAGVCPPKKSAQCLRYKKPECQSDWQCPGKKRCCPDTCGIKCLDPVDTPNPTRRKPGKCPVTYGQCLMLNPPNFCEMDGQCKRDLKCCMGMCGKSCVSPVKA
notes: endogenous annexin A2 ligand
- pseudo-infection, 25 µg/mL ([1]; 25 µg/mL SLPI vs negative and BSA controls, serum free): significant decrease in pseudo-infection
- pseudo-infection, 50 µg/mL ([1]; 50 µg/mL SLPI vs negative and BSA controls, serum free): pseudo-infection further decreased
- decrease in pseudo-infection ([1]; 25–50 µg/mL SLPI, 1 h at 4°C prior to PsV, serum free, vs untreated HaCaT cells, 48 h): 60–80%
- SLPI inhibition of HPV16 infection ([1]; HaCaT cells, discussion): can inhibit HPV16 infection
- PsV infection, presence of FBS [2]: no reduced infection; also recorded: eliminated the blocking effect of SLPI completely
- binding to A2t (absorbance at 490 nm) (A2t): significant binding
- HPV16 infection of HeLa, SLPI in presence of FBS [3]: no reduction in HPV16 infection
- inhibition of HSV infection (HSV): inhibit HSV infection
- inhibition of HIV-1 infection (HIV-1): inhibit HIV-1 infection of macrophages; also recorded: inhibits the infection of HIV-1
